As usually defined, the EC50 (read off the curve) is the midpoint of the concentration-response curve. A higher EC50 (read off the curve) goes with a need for much substance.

14 molecules from patent publication US20230073274A1 (NOVELMED THERAPEUTICS, published 2023) can be followed below.

Test [1] deals with T1, human properdin (human, UniProt P27918 28-469). Description: cell-based or functional assay.
Test [2] addresses T1, human properdin. In words: cell-based or functional assay. The source holds these as a separate data set.
In test [3] the target is T1, human properdin. Description: ELISA, properdin coated on the plate, OD 450 nm.
Test [4] addresses T1, human properdin. In words: properdin binding assay (method of Example 8, not restated).
Test [5] concerns the target T1, human properdin. Description: ELISA, properdin coated on the plate, OD 450 nm. This is another data set of the same source. Background: ELISA stands for enzyme-linked immunosorbent assay.
Test [6] deals with T1, human properdin. In words: ELISA, human properdin coated on plate. As to the method:
(§1) Polystyrene microtiter plates were coated with human (2.0 μg/50 μl per well) properdin in phosphate buffered saline (PBS) overnight at 4° C. After aspirating the properdin solution, the wells were blocked with PBS containing 1% bovine serum albumin (BSA) (Sigma-Aldrich, St. Louis, Mo.) for 2 hours at room temperature. Wells without peptide or properdin coating served as background controls. Aliquots of the test antibody in blocking solution were added to the properdin coated wells and allowed to incubate for 1 hour to allow binding to occur. Following a 1 hour incubation at room temperature, the plate was rinsed with PBS five times and incubated with 1:2000 diluted anti-properdin polyclonal antibody.

For test [7], the target named is T1, human properdin. Description: cell-based or functional assay. This is another data set of the same source.
Test [8] concerns the target T1, human properdin. Description: ELISA, human properdin coated on the plate, OD 450 nm. As for the experimental part:
as §1

Test [9] concerns the target T1, human properdin. In words: cell-based or functional assay. The source holds these as a separate data set.
Test [10] concerns the target T1, human properdin. Description: cell-based or functional assay. This is another data set of the same source.

T1 sequence (P27918 28-469 limits assumed): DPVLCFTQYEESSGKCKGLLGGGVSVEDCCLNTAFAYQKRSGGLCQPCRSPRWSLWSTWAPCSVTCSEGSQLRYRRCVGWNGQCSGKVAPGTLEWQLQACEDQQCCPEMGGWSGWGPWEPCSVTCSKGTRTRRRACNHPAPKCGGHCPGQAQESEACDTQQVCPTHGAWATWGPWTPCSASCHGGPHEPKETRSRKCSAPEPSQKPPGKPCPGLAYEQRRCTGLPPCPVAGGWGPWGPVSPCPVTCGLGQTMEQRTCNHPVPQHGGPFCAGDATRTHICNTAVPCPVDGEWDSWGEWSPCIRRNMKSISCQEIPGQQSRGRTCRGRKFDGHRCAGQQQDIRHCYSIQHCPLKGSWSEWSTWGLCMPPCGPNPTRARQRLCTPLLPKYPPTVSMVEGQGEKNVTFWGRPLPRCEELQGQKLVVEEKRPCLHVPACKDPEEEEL

B1: NMT17-100 (antibody, V domains shown)
VH: EVQLVQSGAEVKKPGASVKVSCKASGYIFTNYPIHWVRQAPGQGLEWMGFIDPGGGYDEPDERFRDRVTMTADTSTSTAYMELSSLRSEDTAVYYCARRGGGYYLDYWGQGTTVTVSS
VL: DIQMTQSPSSLSASVGDRVTITCRASQDISFFLNWYQQKPGKAPKLLIYYTSRYHSGVPSRFSGSGSGTDFTLTISSLQPEDFATYYCQHGSTLPWTFGQGTKLEIK
On to B1, for which, in the test with human properdin [1], the “C3b (µg/mL); inhibition of AP mediated C3b formation and deposition” value (“C3b (µg/mL); inhibition” below) came out at 1 µg/mL; the “MAC (µg/mL); inhibition of MAC formation” value came out at 1 µg/mL. Further, the “IC50 (read off the curve): C3b deposition (sheet title: LPS C3b 10% NHS)” value (“IC50 … (sheet title: LPS C3b 10% NHS)” below) with human properdin [2] was roughly 0.4 µg/mL. For the same molecule, the “EC50 (read off the curve)” value in the test with human properdin [3] was roughly 300 pM. The molecule also yielded an Affinity in the test with human properdin [4] of 263 pM.

B2: NMT18-101 (antibody, V domains shown)
VH: EVQLVQSGAEVKKPGASVKVSCKASGYIFTNYPIHWVRQAPGQGLEWMGFIDPGGGYDEPDERFRDRVTMTADTSTSTAYMELSSLRSEDTAVYYCARRGGGYYLDYWGQGTTVTVSS
VL: DIQMTQSPSSLSASVGDRVTITCRASQDISFFLNWYQQKPGKAPKLLIYYTSRYHSGVPSRFSGSGSGTDFTLTISSLQPEDFATYYCQHGQTLPWTFGQGTKLEIK
Consider B2, for which, in the test with human properdin [1], the “C3b (µg/mL); inhibition” value was determined as 1 µg/mL; the “MAC (µg/mL); inhibition of MAC formation” value stood at 3 µg/mL. Also, the “IC50 … (sheet title: LPS C3b 10% NHS)” value with human properdin [2] is roughly 0.5 µg/mL. In addition, the “EC50 (read off the curve)” value in the test with human properdin [3] was roughly 600 pM. In the test with human properdin [4], the Affinity amounted to 590 pM.

B3: NMT26 (antibody, V domains shown)
VH: EVQLVESGGGLVQPGRSLRLSCAASGYIFTNYPIHWVRQAPGKGLEWVSFIDPGGGHIDYADSVEGRFTISRDNAKNSLYLQMNSLRAEDTAVYYCAKRGGGYYLDYWGQGTLVTVSS
VL: DIQMTQSPSSLSASVGDRVTITCRASQDISFFLNWYQQKPGKAPKLLIYYTSRYHSGVPSRFSGSGSGTDFTLTISSLQPEDVATYYCQHGSTLPYTFGQGTKVEIK
As for B3, the binding result in the test with human properdin [5] is “no binding (tested: about 13 nM)”.

B4: NMT24 (antibody, V domains shown)
VH: EVQLVQSGAEVKKPGASVKVSCKASGYIFTNYPIHWVRQAPGKGLEWMGFIDPGGGHDEYADSVKGRVTMTRDTSTSTVYMELSSLRSEDTAVYYCARRGGGYYLDYWGQGTLVTVSS
VL: DIQMTQSPSSLSASVGDRVTITCRASQDISFFLNWYQQKPGKAPKLLIYGASSYHSGVPSRFSGSGSGTDFTLTISSLQPEDFATYYCQHGQTLPRTFGQGTKVEIK
In the case of B4, the binding result in the test with human properdin [5] is “no binding (tested: about 13 nM)”.

B5: NMT18-100 (antibody, V domains shown)
VH: EVQLVQSGAEVKKPGASVKVSCKASGYIFTNYPIHWVRQAPGQGLEWMGFIDPGGGYDEPDERFRDRVTMTADTSTSTAYMELSSLRSEDTAVYYCARRGGGYYLDYWGQGTTVTVSS
VL: DIQMTQSPSSLSASVGDRVTITCRASQDISFFLNWYQQKPGKAPKLLIYYTSRYHSGVPSRFSGSGSGTDFTLTISSLQPEDFATYYCQHGQTLPWTFGQGTKLEIK
For B5, in the test with human properdin [1], the “C3b (µg/mL); inhibition” value worked out at 1 µg/mL; the “MAC (µg/mL); inhibition of MAC formation” value is 1 µg/mL. Besides, the “IC50 … (sheet title: LPS C3b 10% NHS)” value with human properdin [2] is roughly 0.5 µg/mL. Moreover, the “EC50 (read off the curve)” value in the test with human properdin [3] is 300 to 400 pM. Further, in the test with human properdin [4], the Affinity amounted to 322 pM.

B6: NMT23 (antibody, V domains shown)
VH: EVQLVQSGAEVKKPGASVKVSCKASGYIFTNYPIHWVRQAPGKGLEWMGFIDPGGGHDEYADSVKGRVTMTRDTSTSTVYMELSSLRSEDTAVYYCARRGGGYYLDYWGQGTLVTVSS
VL: DIQMTQSPSSLSASVGDRVTITCRASQDISFFLNWYQQKPGKAPKLLIYYTSRYHSGVPSRFSGSGSGTDFTLTISSLQPEDFATYYCQHGSTLPWTFGQGTKVEIK
Regarding B6, in the test with human properdin [5], the “EC50 (read off the curve)” value was roughly 200 pM.

B7: NMT28-100 (antibody, V domains shown)
VH: EVQLVQSGAEVKKPGASVKVSCKASGYIFTNYPIHWVRQAPGQGLEWMGFIDPGGGYDEPDERFRDRVTMTADTSTSTAYMELSSLRSEDTAVYYCARRGGGYYLDYWGQGTLVTVSS
VL: DIQMTQSPSSLSASVGDRVTITCRASQDISFFLNWYQQKPGKAPKLLIYYTSRYHSGVPSRFSGSGSGTDFTLTISSLQPEDFATYYCQHGQTLPWTFGQGTKVEIK
In the case of B7, in the test with human properdin [1], the “C3b (µg/mL); inhibition” value was 1 µg/mL; the “MAC (µg/mL); inhibition of MAC formation” value is 3 µg/mL. The “IC50 … (sheet title: LPS C3b 10% NHS)” value in the test with human properdin [2] was roughly 0.5 µg/mL. Besides, the “EC50 (read off the curve)” value in the test with human properdin [3] fell in the range of 300 to 400 pM. The molecule also registered an Affinity with human properdin [4] of 318 pM.

B8: NMT22 (antibody, V domains shown)
VH: EVQLVQSGAEVKKPGASVKVSCKASGYIFTNYPIHWVRQAPGQGLEWMGFIDPGGGYDESAQKFRGRVTLTADTSTSTVYMELSSLRSEDTAVYYCARRGGGYYLDYWGQGTTLTVSS
VL: DIQMTQSPSSLSASVGDRVTITCRASQDISFFLNWYQQKPGKAPKLLIYYTSRYHSGVPSRFSGSGSGTDFTLTISSLQPEDFATYYCQHGSTLPYTFGQGTKLEIK
With B8, the “Binding Affinity” value in the test with human properdin [6] came out at 335 pM. Also, the “IC50 (read off the curve): properdin deposition (AP activation on LPS, 10% normal human serum)” value with human properdin [7] is roughly 9 µg/mL. Also, the “EC50 (read off the curve)” value with human properdin [8] was 300 to 400 pM.

B9: NMT17-101 (antibody, V domains shown)
VH: EVQLVQSGAEVKKPGASVKVSCKASGYIFTNYPIHWVRQAPGQGLEWMGFIDPGGGYDEPDERFRDRVTMTADTSTSTAYMELSSLRSEDTAVYYCARRGGGYYLDYWGQGTTVTVSS
VL: DIQMTQSPSSLSASVGDRVTITCRASQDISFFLNWYQQKPGKAPKLLIYYTSRYHSGVPSRFSGSGSGTDFTLTISSLQPEDFATYYCQHGSTLPWTFGQGTKLEIK
Turning to B9, in the test with human properdin [1], the “C3b (µg/mL); inhibition” value was found to be 1 µg/mL; the “MAC (µg/mL); inhibition of MAC formation” value was 1 µg/mL. Moreover, the “IC50 … (sheet title: LPS C3b 10% NHS)” value in the test with human properdin [2] is roughly 0.5 µg/mL. Further, in the test with human properdin [3], the “EC50 (read off the curve)” value was roughly 500 pM. In the test with human properdin [4], this molecule yielded an Affinity of 499 pM.

B10: NMT21 (antibody, V domains shown)
VH: EVQLVQSGAEVKKPGASVKVSCKASGYIFTNYPIHWVRQAPGQGLEWMGFIDPGGGYDEYAQKFQGRVTLTADTSTSTAYMELSSLRSEDTAVYYCARRGGGYYLDYWGQGTTLTVSS
VL: DIQMTQSPSSLSASVGDRVTITCRASQDISFFLNWYQQKPGKAPKLLIYYTSRYHSGVPSRFSGSGSGTDFTLTISSLQPEDFATYYCQHGQTLPWTFGQGTKLEIK
Consider B10, for which the “IC50 (read off the curve): C3b deposition (AP activation on LPS, normal human serum)” value with human properdin [9] is roughly 0.5 µg/mL. Also, the “Binding Affinity” value with human properdin [6] is 353 pM. Further, in the test with human properdin [10], the “MAC (µg/Ml); inhibition of MAC formation” value worked out at 8 µg/mL and the “Properdin (µg/mL); inhibition of properdin deposition” value turned out to be 8 µg/mL. For the same molecule, the “IC50 (read off the curve): properdin deposition (AP activation on LPS, 10% normal human serum)” value with human properdin [7] is roughly 1 µg/mL. In the test with human properdin [8], the “EC50 (read off the curve)” value was 300 to 400 pM.

B11: NMT27 (antibody, V domains shown)
VH: EVQLVQSGAEVKKPGASVKVSCKASGYIFTNYPIHWVRQAPGKGLEWMGFIDPGGGYDEPDERFRDRVTMTRDTSTSTVYMELSSLRSEDTAVYYCARRGGGYYLDYWGQGTLVTVSS
VL: DIQMTQSPSSLSASVGDRVTITCRASQDISFFLNWYQQKPGKAPKLLIYYTSRYHSGVPSRFSGSGSGTDFTLTISSLQPEDFATYYCQHGSTLPRTFGQGTKVEIK
B11: in the test with human properdin [5], the binding result is “binds”.

B12: NMT20 (antibody, V domains shown)
VH: EVQLVQSGAEVKKPGASVKVSCKASGYIFTNYPIHWVRQAPGQGLEWMGFIDPGGGYDEPDERFRDRVTMTADTSTSTAYMELSSLRSEDTAVYYCARRGGGYYLDYWGQGTTVTVSS
VL: DIQMTQSPSSLSASVGDRVTITCRASQDISFFLNWYQQKPGKAPKLLIYYTSRYHSGVPSRFSGSGSGTDFTLTISSLQPEDFATYYCQHGSTLPYTFGQGTKLEIK
With B12, the “IC50 (read off the curve): C3b deposition (AP activation on LPS, normal human serum)” value with human properdin [9] was roughly 0.8 µg/mL. Moreover, the “Binding Affinity” value with human properdin [6] is 297 pM. Also, in the test with human properdin [10], the “MAC (µg/Ml); inhibition of MAC formation” value was 25 µg/mL and the “Properdin (µg/mL); inhibition of properdin deposition” value worked out at 30 µg/mL. The “IC50 (read off the curve): properdin deposition (AP activation on LPS, 10% normal human serum)” value in the test with human properdin [7] was roughly 1 µg/mL. The “EC50 (read off the curve)” value with human properdin [8] was roughly 300 pM.

B13: NMT19 (antibody, V domains shown)
VH: EVQLVQSGAEVKKPGASVKVSCKASGHIFTNYPIHWVRQAPGQGLEWMGFIDPGGGHDEPDERFRDRVTMTADTSTSTAYMELSSLRSEDTAVYYCARRGGGYYLDYWGQGTTVTVSS
VL: DIQMTQSPSSLSASVGDRVTITCRASQDISFFLNWYQQKPGKAPKLLIYYTSRYHSGVPSRFSGSGSGTDFTLTISSLQPEDFATYYCQHGQTLPWTFGQGTKLEIK
Consider B13, for which the “Binding Affinity” value with human properdin [6] worked out at 486 pM. Moreover, in the test with human properdin [7], the “IC50 (read off the curve): properdin deposition (AP activation on LPS, 10% normal human serum)” value is roughly 10 µg/mL. Moreover, the “EC50 (read off the curve)” value with human properdin [8] was roughly 500 pM.

B14: NMT28-101 (antibody, V domains shown)
VH: EVQLVQSGAEVKKPGASVKVSCKASGYIFTNYPIHWVRQAPGQGLEWMGFIDPGGGYDEPDERFRDRVTMTADTSTSTAYMELSSLRSEDTAVYYCARRGGGYYLDYWGQGTLVTVSS
VL: DIQMTQSPSSLSASVGDRVTITCRASQDISFFLNWYQQKPGKAPKLLIYYTSRYHSGVPSRFSGSGSGTDFTLTISSLQPEDFATYYCQHGQTLPWTFGQGTKVEIK
For the molecule B14, in the test with human properdin [1], the “C3b (µg/mL); inhibition” value is 1 µg/mL; the “MAC (µg/mL); inhibition of MAC formation” value was found to be 3 µg/mL. In addition, the “IC50 … (sheet title: LPS C3b 10% NHS)” value with human properdin [2] was roughly 0.5 µg/mL. Also, the “EC50 (read off the curve)” value with human properdin [3] is roughly 400 pM. Besides, the Affinity in the test with human properdin [4] is 425 pM.
